Assay results taken from article doi:10.1101/315713 (bioRxiv, 2018).

Molecular target: the molecule itself

B1: Dipeptidase 3 (DPEP3), native, from testicular tissue and spermatozoa lysates (natural protein, UniProt Q9H4B8 36-463, looked up)
chain: AETTPGAPRALSTLGSPSLFTTPGVPSALTTPGLTTPGTPKTLDLRGRAQALMRSFPLVDGHNDLPQVLRQRYKNVLQDVNLRNFSHGQTSLDRLRDGLVGAQFWSASVSCQSQDQTAVRLALEQIDLIHRMCASYSELELVTSAEGLNSSQKLACLIGVEGGHSLDSSLSVLRSFYVLGVRYLTLTFTCSTPWAESSTKFRHHMYTNVSGLTSFGEKVVEELNRLGMMIDLSYASDTLIRRVLEVSQAPVIFSHSAARAVCDNLLNVPDDILQLLKKNGGIVMVTLSMGVLQCNLLANVSTVADHFDHIRAVIGSEFIGIGGNYDGTGRFPQGLEDVSTYPVLIEELLSRSWSEEELQGVLRGNLLRVFRQVEKVREESRAQSPVEAEFPYGQLSTSCHSHLVPQNGHQATHLEVTKQPTNRVPWRS
  stoichiometry N: 2

B2: DPEP3, free soluble native form in seminal plasma (natural protein, human (endogenous in seminal plasma), UniProt Q9H4B8 36-463, looked up)
chain: B1 chain
  stoichiometry N: 2
